Measured values reported in the domain aggregation screens of Martell et al. (2025).

assay: soluble fraction after stress (log2 fold change); higher = more stays soluble; pooled small domains, quantitative proteomics; conditions: stress: 50 degC
How it was run: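 The stress applied to every library was 50°C. These custom libraries of small protein domains were pooled and measured at high throughput with quantitative proteomics as the read-out. Aggregation propensity is expressed as the base-two logarithm of the fold change in how much of each protein remains soluble. The higher the value, the more of that protein stays in solution.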

Point of comparison: “HMTPKVAVPSFVGWKFEDVERQLGTMGLIRGKVDNHPSEEYSEGRVIWQSVLGEVEKGKVIDFWVSTGPE”, “soluble fraction (log2)” value -0.0362. Against it:
- HMITIDADTGKRVYTRKEVADLVGASTQSIRLWEDAGAIPASVRDEGGYRYWYEEDLEAIKAYAS — within 0.2 log units, -0.19
- HMGNLASRVAEQLLDKMRGDSLVPGTRLPSEIAMAKHFGVSRTVMREAIARLKADGLLETRRGSGAFVLAT — lower, -0.664
- HMQTFNADDIEPIIKEILQENPKAISDFLTGNENVVKFLLGQVMKNTKGKANPKVIEELLINQLRELNN — within 0.2 log units, 0.00183
- HMISVTNRTGTGLNDVKVEVFPVGRQMVFSATVFRVESEATNRFSLGELRGSDGTPFNQRVHRPESI — higher, 0.188
- HMSQSMEVLYTDLTDKDAAAIVEKLEEEKIPYQLEDQGTTILVPPGVKYTTRLKLAAEDLPKG — within 0.2 log units, 0.000352
- HMESTLNYSQFLSLVNEDRVAEVVIQGKELYVTDVNRSRFKVYAPPDPELIGLLRQKRVIISAKP — within 0.2 log units, -0.0196
- HMKETLSDTVSRKLEDMITTQMKAGNRLPTEMVLAEMYSVGRSTIRESLKALSSKGLIVRKKDGTFVSDRV — within 0.2 log units, -0.109
- HMVSSEGLASGIERMLVEFGLETDKGRRFAMWSLLYMLGSAPDLDVAFKDPRDREAARTFMDLLDQANA — lower, -0.69
- HMGGTATDYYNQGRTAYDVGDYNGALMNFQEAVRLDPRYGEAYYGLGKAYEALNMQNQALDAYLSAI — within 0.2 log units, -0.16
- HMLTGESDNVEKSINKLGTENLALADQTNMGFKGTFINSGHGMAIVVKTGMQTELGKIASMIQIA — higher, 0.21
- HMNQSKYQTIADELKSKILSGEYPENTTIPPELQLQKDYQVSRHTIRQAIALLANEGFLRKEKGSGTYVDV — within 0.2 log units, 0.0512
- HMAENTIPSVIGKTLSDATFLLESYGYERGGVSEEYSEMPKGVVIRQSPQAGSSADPGTKVNLVVSLGEEI — higher, 0.174
- HMFTLDDLQATYDIFERAEQNSDAMLAFQKVITAEGLDFDLTSPQGIVDFFKGAAPTEIYDLYEAS — lower, -0.403
- HMSHDTLVYRLAQMLVKLNQGEKLDPQQLAEEFGVNLRTIQRDLNVRFAYLQLEKTDGRYHLDPTFL — lower, -0.999
- HMAVKYTKDDFLYTEKPYEAIYDYKNDPFMHNLKIEQMAQQAAEVGVKTFKGLYKNYVKMREMQRGANV — within 0.2 log units, 0.14
- HMGLLVPELTAEENVSLAAMIAGVPRQQARSISADLLNRLGLGQMLDRRMGEMSGGQAQRVAIAPIYGKF — lower, -0.274
- HMQLEPLVTSVIPVNFAKASDISGTIKGKEVGLLSERGNITAENRTNVLIVKDIRKSVDEINAMVKRLD — within 0.2 log units, -0.0183
- HMLDVGDQLVKKLKDNDSLDFHFVNSKEANKGLKDGDYYMVITIPSNFSKNATTLLDKNPKKMVLNYTTNP — within 0.2 log units, 0.0441
- HMEKEEELNSIRPDLDGNDIMEILGVPAGPKVGKAYNYLLNVRLDEGPLSRAEAISRLEAWWENQ — lower, -0.368
- HMRRVRRTRRLLQDGLLGLMQHKAVADISVKELAEAADVARATVYVHFKDPADVLHQLEQGLY — within 0.2 log units, -0.0324
- HMEKDEYIFVDIDGAVFNPGVYKLIAGSRVIDAINLAGGLKEKAFTQNLNKARKLVDGEKIYIYLEGDEE — lower, -0.585
- HMRGGWESLTDREREIAVLAAEGHSNRTIASTLFISDRTVQSHVSRALRALGVDSRTGIPSLVTTATR — within 0.2 log units, -0.0688
- HMDDIHTFVYETETPFDPQKLDRYIGSLTAVYGQDMLRYKGILYFAGVDRRVVFQGVHMLAV — within 0.2 log units, -0.0916
- HMIINKFERRKEIQIQFNNQERIKFKDFFLNLSKENIIVSFLILLELVRESLIDFSGTNENDIEFFIK — lower, -2.3
- HMEPERRHLEVPAEAEGERIDRFLASQLENLSRSRIQALIKAGYVRNRRGTIEDPGLRVKPGDAFVVDLPP — higher, 0.44
- HMKRITGHLTEKNKKWYAVINLYDTDGKRKEKWQGLNLDANKGNKREAEHRLRQILDQYNTD — within 0.2 log units, -0.0127
- HMDLIEVLAQDTIKKIYNTYVAYKNKVDVFYVAFSGGKDSIVTLDLVQRTLPHNEFKVLFGDTGM — within 0.2 log units, 0.133
- HMNYSKQRETILKVLRSTRSHPSVNWIYENVKKEIPDVGLATVYRNLKQLEAAGEIMRIQGDFPEERWDGF — lower, -0.911
- HMSRLQDAELQAQIDKMAGAMQLRDIPVYVQDIPTINGLAAPDGRVFITQGFIDKYKLGEVSAGEIASVI — higher, 0.36
- HMAPEVTVHDGSIVVRGHVGGVTVYDESGRQIASVQSRGAVAIPVPAGHTYLYIVKPEGKPAIKVRAAH — within 0.2 log units, 0.0927
- HMKTVKPSQIPYSEFLKLVETDKINDVSMVGRNIIGHLDDGSKFKTYTPPNDPTLIEKLSSHNIVINAAPE — within 0.2 log units, 0.149
- HMNFRESVLAVFENSKQKYLDFDEIAKRLGLTRGFDRQALASMLNELTRNDEIVFTKRNKYTLPEN — within 0.2 log units, 0.125
- HMDTLRPLGRYQNVHLTKQELTALQSEFSDWSERIERLSSYMASTGRKYQNHAATIRLWAEKDK — within 0.2 log units, 0.13
- HMNTTTTKVVSVSSLNMRSGPSTSYNIIEVLTKDTQVEVISVEDGWAKIKYNSKTGYVSNQYLSDKK — within 0.2 log units, 0.0146
- HMLMDVRVPDIIGVEINQAKEILTASSLLIGKITYVSLPEIEKDLVIETSVLAGRRVSAGTVIDITVNKE — lower, -0.76
- HMENFSTLFSRLKEERGLSNKQISSFTGAPIKEVKKWESGMGIPTEKRIVAALEGILGSEISKAI — within 0.2 log units, -0.0124
- HMDPPQEVWDLTRSYLDSMNRPVHGHKSPQETYLRQVKSHRLPATALWDYFMAQRFHAVHATSESAA — within 0.2 log units, -0.0648
- HMLDLSEEEQKIVSILEKQGNLQINSLVVEADIPVHKINAILFELEMKGVVRVLALSLIHISEP — within 0.2 log units, 0.0725
- HMELVQIIGNNIRDLMTTRSVTITDLANYLNVSRQTLQNYLRGSNIIDSVKLVAVSDFFDVPVESLLQSK — lower, -1.04
- HMIAASPVGGIDRVLELLDARGQRVAWIEASGTEGGQRLRLGWIDAQGAERHGAWVPWSADDLLLYA — lower, -0.387
- HMSSSKVAISQFEELVDQGQVREVVIEGSTATGTTAAGRRFAAEIPPGGMELFLSKLDDAGTTYEYSPP — higher, ≥ 0.62
- HMSTILERLIMLQEQSGMNQKQLQKELGLSNSAFSDWKKGKGRPSVEALVRFSEFFGVSMDWLAFG — lower, -2.09
- HMSGAKLLAPVTGTLLRYTVAEGTKVSEGQTVIMLESMKMELEINAHKAGVIHFTAAAGAQVAEGDSLAEI — lower, -0.52
- HMLIRKGVVSFFNDAKGYGFIKDLVTQESAFVHVNSLSETIKEHDKVTFEVEMGHKGANAVNVKLVK — lower, -1.03
- HMTWDSFIGYTVTDVQKGYLGEITDVDETTINVLLRVDHKGEELLIPAVEELITEADHEARSLTVSLPEGL — within 0.2 log units, -0.0571
- HMPLVIIRGIEGVFSSEEKAEAIRKVTDALVSVKGENVRGFAWVVFEEVKSGDWGIGGESITAEKVIMSL — within 0.2 log units, -0.0828
- HMKMPNGYGSVYKLSGNRRKPWAARVTDGWVNDTKTKKSKQKYKFIGFYETRKEALLALADYNANP — lower, -1.43
- HMDKNLQYADTPKGKLREYIKNLPNGSTVNRQKLAEEFGIKKQSMGTVTEVFQEFPDKNFKFVNP — within 0.2 log units, 0.119
- HMEVGKRIAEIRKENRMSQEQFGQLFHVTRQTVSNWENAKSYPDLQTLVKISELFEITMDELLK — lower, -0.511
- HMGFAPEAAREEVAQLIGQRGRAVTVLRPSGQVEIAGRRFEATVEVGAVDAGDTIVVRGQTAFALLVEKAD — within 0.2 log units, 0.0301
- HMDPPYKDKNLHELLLKINNLNILKKDSVIILHRHKKQKEIFPSNFKIIEQKQYGISKIIFLTVL — within 0.2 log units, 0.00254
- HMDSLARKTVNGAEFYIYPVESAEGFYSLRRKFGVSQEEVIKYNPSAQNGLKSGQVLLIPVT — within 0.2 log units, -0.176
- HMAGITLHAEEGRVRIRSQSEGLVKVLDAMGREQASWPLRSKGWWFFLTEGWAPGTYFVKTESGETQRFLV — within 0.2 log units, 0.0535
- HMGAISGEQREFYTVFRGHLNSHVGEFKVEDIENLLMKAKTEVPDLLEEEFLKMGEAILNRYRN — within 0.2 log units, -0.0826
- HMATLAVPNLMRLSQGEAMALIRLSGLSIGNVSIDSSMGSPRVIRQEPQASGGMLVLTQGDQVHLWLEGP — lower, -3.2
- HMIKRETNDNPVDPASLSLGDRVKILTLNQNGEIISLPDEKGLLQVQVGIMKIGVNVSDIMLI — within 0.2 log units, -0.0513
- HMNNQMTFSKFLNEVDAGRVVEVEIQGNNIKGVLADGNRFNTFSPNYPNLVEKLSDKGVSITAAPK — within 0.2 log units, 0.0484
- HMPALATKDSVLDGRAEVVSYVRDTSVFYLRVRVPQKQGYRSRRIDGVSTLPEAITKALDTYMDLGT — lower, -2.57
- HMYRLDVEISDEIKRDIDEETLSEIKGIIAEDPRPSYQNDETRIYRFTFAGREISFRVKDRTATVTEIL — within 0.2 log units, -0.0821
- HMMNNKEIGTRIAVLRKGMGDSQAKLAERLDVSPQAVSKWETGQSLPDIGNLLKLSWLFRTSINHILEGS — lower, -1.37
- HMENEDMTGDIRVIDYIRNVAEYIQTTKGQASASQMLDRFLFPPELQYTPLDKLSGGEQRRLYLLKVLMEA — within 0.2 log units, 0.0342
- HMPPSRFNELSMWFQEQLTEAGLKVDSGALKMLIEWLGQDQARLPSIIEVLVSTYGTKKKLTVDEIEPFL — higher, 0.234
- HMNENFPYRLKEMVVVQSRTWPGINKPGGVGQVMKINPEAGTVNVKYVLGGSEKNIELKYVTSNDLNSK — lower, -0.536
- HMIITTPYKVTASAINIRSGRGTSYSIIGTVSKGQTVDVYNNSLSKGWVKVKFSGSVGYAYAKYLEK — lower, -0.299
- HMISESLLDEIPGLGETRRNSLLREFGSVAMIRKASAEEIASRVRGIGAEFAAAIHDFLQTH — within 0.2 log units, -0.0611
- HMNDVLVGAIPESASGSRLDKVMPSVFPPYSRSQLQVWLKQGRILMGNGIPSPRLIVSGGEVLSLVVPELP — lower, -0.971
- HMDGLPYPEAAEEPIAQVARNLGMDATRVSIALQEAKLIFRNLDETLAEIAANNGTTPQVVYDAIRHLEPP — within 0.2 log units, -0.095
- HMKRFSPPSIEEVDSYIREKGYTVDAERFVNFYESKGWYVGKNKMKNWRAAVATWQKEDNKRN — higher, 0.199
- HMLDEKFLSELMLALLRNHRRGLRAEVLLHKVRSNMELDGYKSLLVGVGRMEMWELAREIIDFVKAEG — lower, -4.4
- HMALDSQEVGYNIEARGARPVVAQLGKAGQFSAVENSIRLGDDNWIALAPKLAGGGNAGFTAGIKSALS — within 0.2 log units, 0.0371
- HMVGKGASIILDRVNLPQYLEKFNEDGFDTIESLKNLNEIDLKEMGVKKGHIRVILNYLHEEY — lower, -0.501
- HMSSLTQREYEIAELVADGLSNKAIAAELSISHTTAARHVANIMNKLGFNSRSQIAAWVADRAQG — within 0.2 log units, 0.11
- HMAQTEIIRVTKDIKKGDAITADKFEKVKVGAYNLPGNVVKNADELKGKFAAADLVRGDYILTSKLTDNP — within 0.2 log units, 0.146
- HMAATISPEIQAEAEKAAALGVESIKNFMASLKEKNPEQHALFSDSEKRRLYAIARKADLNTTQQG — within 0.2 log units, -0.103
